Legend:
NC-fed C57BL/6J mice = experiment: rDj1 tail-vein injection daily for 5 days in NC-fed mice; assay type: in vivo, mouse; settings: 0.15 mg/kg/day IV for 5 days
Protocol: C57BL/10cSn-Dmd^mdx/J (001801, mdx) and C57BL/10ScSnJ (000476, WT) mice were ordered directly from The Jackson Laboratory. Different ages of mdx and WT mice were obtained. Animals were weaned 21 days after birth and had free access to food and water and were housed on 12 h light-dark cycle. C57BL/6J males were introduced to a normal diet (NC, Research Diets D15100601) or high-fat diet (HFD, Research Diets D12331), and maintained on a diet for the indicated time. The HFD diet derives 58% of its kilocalories (kcal) from fat (soybean and coconut oil), 25.5% from carbohydrates (sucrose and maltodextrin), and 16.4% from protein (casein). NASH model mice were fed for up to 28 weeks with the NASH diet (Envigo, TD.120528) and 42% fructose (Sigma, F0127) in the water (1,2). The NASH diet is composed of 405.36 g/Kg sucrose and 12.5 g/Kg cholesterol. Recombinant mouse Dj1 protein (Novus, NBP2-59523) or truncated mouse Dj1 (tDj1, GenScript) protein was intravenously injected every day for 5 days or every other day for 2 weeks. Skeletal muscle-specific Park7 knockout mice were generated by crossing Park7 flox mice with Myl1-cre mice (JAX, #024713). Mice were raised in microisolator cages with a 12 h: 12 h light: dark cycle. […]
Plasma and liver NEFA, Cholesterol, and Triglyceride were analyzed by their respective kits (FUJIFILM Wako Diagnostics) […]

HFD-fed C57BL/6J mice = experiment: rDj1 tail-vein injection daily for 5 days in HFD-fed mice; assay type: in vivo, mouse
Protocol: C57BL/10cSn-Dmd^mdx/J (001801, mdx) and C57BL/10ScSnJ (000476, WT) mice were ordered directly from The Jackson Laboratory. Different ages of mdx and WT mice were obtained. Animals were weaned 21 days after birth and had free access to food and water and were housed on 12 h light-dark cycle. C57BL/6J males were introduced to a normal diet (NC, Research Diets D15100601) or high-fat diet (HFD, Research Diets D12331), and maintained on a diet for the indicated time. The HFD diet derives 58% of its kilocalories (kcal) from fat (soybean and coconut oil), 25.5% from carbohydrates (sucrose and maltodextrin), and 16.4% from protein (casein). NASH model mice were fed for up to 28 weeks with the NASH diet (Envigo, TD.120528) and 42% fructose (Sigma, F0127) in the water (1,2). The NASH diet is composed of 405.36 g/Kg sucrose and 12.5 g/Kg cholesterol. Recombinant mouse Dj1 protein (Novus, NBP2-59523) or truncated mouse Dj1 (tDj1, GenScript) protein was intravenously injected every day for 5 days or every other day for 2 weeks. Skeletal muscle-specific Park7 knockout mice were generated by crossing Park7 flox mice with Myl1-cre mice (JAX, #024713). Mice were raised in microisolator cages with a 12 h: 12 h light: dark cycle. All procedures were performed in accordance with the Guide for Care and Use of Laboratory Animals of the National Institutes of Health, and were approved by the Animal Subjects Committee of the University of California, Los Angeles.
Cryosections (10-μm thick transverse sections of frozen muscle cut in a cryostat (Leica) at −20° C.) were subjected to hematoxylin & eosin (H&E) staining (10, 54). Liver tissues were fixed in phosphate-buffered 10% formalin and embedded in paraffin wax. Sections were cut and stained with H&E.
Plasma and liver NEFA, Cholesterol, and Triglyceride were analyzed by their respective kits (FUJIFILM Wako Diagnostics)
About 80 mg of liver samples were homogenized and sonicated in PBS (pH 7.4) for lipid extraction. An internal standard mixture (ISTD) and CHCl3:methanol (2:1) were added to the samples before being vortexed, mixed, sonicated, and centrifuged. The supernatant containing the lipid was removed and dried, the lipids were resuspended in ethanol and then sonicated.
AMPK signaling is vital for lipid metabolism in the liver (19). […] These findings indicate that Dj1 could enhance lipid metabolism and ameliorate HFD-induced hepatic steatosis. rDj1 was tail-vein injected into mice fed with a chow diet (NC) or high-fat diet (HFD) daily for 5 days. […] Although body weights and fasting blood glucose levels of HFD-fed mice were unchanged during the rDj1 administration, rDj1 indeed enhanced glucose homeostasis and insulin action, as evidenced by improving glucose tolerance tests and insulin tolerance tests, respectively (FIGS. 4K-4M, 4U-4Z).

ACC = ACC phosphorylation immunoblot in HepG2 cells; assay type: cell-based, human
Protocol: Mouse myoblast cells (C2C12) were maintained in high glucose DMEM/high, 10% fetal bovine serum with penicillin/streptomycin. pRK5-Dj1-HA plasmid was purchased from Addgene (#29396). Seeded cells were cultured in 6-well plates for 24 hours prior to transfection. Transfections were performed using Lipofectamine 2000 and PLUS reagent according to manufacturer instructions (Invitrogen, Carlsbad, CA). Human HepG2 cells were cultured in DMEM/low media containing 10% fetal bovine serum with penicillin/streptomycin. Mouse AML12 cells were maintained in DMEM/F12, ITS supplement (Gibco, USA), 40 ng/ml dexamethasone, and 10% fetal bovine serum with penicillin/streptomycin. For in vitro experiments, HepG2 cells were treated with or without recombinant human Dj1 protein (Novus, NBC1-18334) in serum-free media containing 25 mM glucose, 200 μM palmitic acid, and 0.25% bovine serum albumin for an indicated time.

[1] = system: liver inflammation, de-novo lipogenesis and gluconeogenesis genes; experiment: Gene expression in the liver of NC- or HFD-fed mice; assay type: in vivo, mouse
Protocol: A wide variety of mechanisms activate the JNK pathway. […] Moreover, ASK1 is activated by various stresses, including oxidative stress, ER stress, calcium overload, and receptor-mediated inflammatory signals such as TNFα and lipopolysaccharide (LPS) (26,27). rDj1 administration suppressed both baseline and TNFα-induced ROS levels in HepG2 cells, which may contribute to reducing liver inflammation (FIG. 6F).
Also, the transcriptional activity of PPARα was determined to be elevated by Dj1 administration in the liver of both NC- and HFD-fed mice (FIGS. 6L, 6M, 6S, 6T). Furthermore, Dj1 elevated plasma β-hydroxybutyrate (a ketone body) levels in NC-fed mice but not in HFD-fed mice (FIG. 6N, 6U).

JNK = JNK phosphorylation immunoblot in liver of HFD-fed mice; assay type: in vivo, mouse
Source text: As described above, Dj1 administration stimulates AMPK phosphorylation in the liver cells. However, elevated AMPK phosphorylation in vivo was not observed (data not shown). Numerous studies have reported that the c-Jun N terminal kinase (JNK) is critical to the development of steatosis and chronic liver injury in NAFLD (22-25). […] However, not all MAPK pathways were activated. For example, phosphorylation of p42 was not altered by tDj1 treatment (FIG. 6O). Both rDj1 and tDj1 suppressed TNFα and Anisomycin-induced JNK (p54 and p46) phosphorylation in human HepG2 and mouse AML12 liver cells, respectively (FIGS. 6C-6D).

B1: rDj1: full-length recombinant Dj1 protein; mouse protein (Novus, NBP2-59523) injected in mice, human protein used in HepG2 cells (protein, UniProt Q99LX0 1-189, looked up)
chain: MASKRALVILAKGAEEMETVIPVDVMRRAGIKVTVAGLAGKDPVQCSRDVMICPDTSLEDAKTQGPYDVVVLPGGNLGAQNLSESPMVKEILKEQESRKGLIAAICAGPTALLAHEVGFGCKVTTHPLAKDKMMNGSHYSYSESRVEKDGLILTSRGPGTSFEFALAIVEALVGKDMANQVKAPLVLKD
modifications: full-length
notes: full-length recombinant Dj1 protein; mouse protein (Novus, NBP2-59523) injected in mice, human protein used in HepG2 cells
Which results are given for B1?
plasma cholesterol levels (NC-fed C57BL/6J mice): significantly reduced; plasma non-esterified fatty acids (NEFA) (NC-fed C57BL/6J mice): significantly reduced; TGs levels in the liver (HFD-fed C57BL/6J mice; 0.15 mg/kg/day IV for 5 days): decreasing; glucose tolerance tests (HFD-fed C57BL/6J mice; 0.15 mg/kg/day IV for 5 days): improving; insulin tolerance tests (HFD-fed C57BL/6J mice; 0.15 mg/kg/day IV for 5 days): improving; liver H&E staining, lipids (HFD-fed C57BL/6J mice; daily for 5 days): fewer lipids; body weights (HFD-fed C57BL/6J mice; during rDj1 administration): unchanged; fasting blood glucose levels (HFD-fed C57BL/6J mice; during rDj1 administration): unchanged; phosphorylation of ACC (ACC): elevated; reduction of gene expression of de-novo lipogenesis ([1]; liver of HFD-fed mice): blunted; reduction of gene expression of gluconeogenesis ([1]; liver of HFD-fed mice): blunted; gene expression of de-novo lipogenesis ([1]; liver of NC-fed mice): reduced; gene expression of gluconeogenesis ([1]; liver of NC-fed mice): reduced; JNK (p46 subunit) phosphorylation (JNK): significantly reduced

From patent publication US20250339501A1, “COMPOSITIONS AND METHODS FOR TREATING METABOLIC DISEASE” (The Regents of the University of California, priority 2021, published 2025)
